The values that follow come from publication PMC12711061, “Far-infrared irradiation attenuates vessel contraction by activating SERCA2 through disruption of SERCA2 and PLN interaction” (PLOS One, 2025).

The target of the test is sarcoendoplasmic reticulum Ca2+-ATPase 2 (SERCA2), endogenous in rat VSMCs (rat (endogenous in rat aortic VSMCs), UniProt P11507 1-1043). The test is described as follows: cell-based or functional assay.
sarcoendoplasmic reticulum Ca2+-ATPase 2 (SERCA2), endogenous in rat VSMCs, sequence (P11507 whole entry): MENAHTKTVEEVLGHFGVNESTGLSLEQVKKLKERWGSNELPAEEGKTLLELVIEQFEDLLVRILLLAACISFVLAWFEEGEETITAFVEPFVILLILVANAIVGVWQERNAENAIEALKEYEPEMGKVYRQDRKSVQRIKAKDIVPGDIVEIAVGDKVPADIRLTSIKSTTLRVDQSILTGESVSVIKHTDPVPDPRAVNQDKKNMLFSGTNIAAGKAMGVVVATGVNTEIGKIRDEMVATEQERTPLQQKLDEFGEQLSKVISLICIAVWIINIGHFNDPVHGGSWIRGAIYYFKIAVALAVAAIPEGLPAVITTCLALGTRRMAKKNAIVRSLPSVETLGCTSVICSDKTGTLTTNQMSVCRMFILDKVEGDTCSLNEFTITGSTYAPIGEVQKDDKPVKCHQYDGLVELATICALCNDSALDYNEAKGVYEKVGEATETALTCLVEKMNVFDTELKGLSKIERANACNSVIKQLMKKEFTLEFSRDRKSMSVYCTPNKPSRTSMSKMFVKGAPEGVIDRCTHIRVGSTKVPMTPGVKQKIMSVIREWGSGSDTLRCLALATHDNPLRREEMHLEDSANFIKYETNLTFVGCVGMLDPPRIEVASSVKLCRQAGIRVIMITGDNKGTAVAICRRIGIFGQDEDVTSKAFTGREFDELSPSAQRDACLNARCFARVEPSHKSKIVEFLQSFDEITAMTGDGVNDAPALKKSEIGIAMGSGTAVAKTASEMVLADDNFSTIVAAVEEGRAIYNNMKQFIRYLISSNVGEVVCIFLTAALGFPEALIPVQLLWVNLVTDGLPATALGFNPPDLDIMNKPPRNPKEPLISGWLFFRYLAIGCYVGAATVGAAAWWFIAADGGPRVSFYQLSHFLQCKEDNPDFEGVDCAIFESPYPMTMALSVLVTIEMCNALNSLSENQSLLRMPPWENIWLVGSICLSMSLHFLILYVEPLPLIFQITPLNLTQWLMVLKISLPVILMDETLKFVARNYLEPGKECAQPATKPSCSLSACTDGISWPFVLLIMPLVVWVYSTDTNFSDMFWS

B1: phospholamban (PLN), endogenous in rat VSMCs (natural protein, rat (endogenous in rat aortic VSMCs), UniProt P61016 1-52, looked up)
chain: MEKVQYLTRSAIRRASTIEMPQQARQNLQNLFINFCLILICLLLICIIVMLL
As for B1, the “Ca2+-dependent SERCA activity in VSMC lysate (enzyme-coupled spectrophotometric assay), FIR irradiation for 30 min against the RT control” value came to 4.5 fold.
